Laboratory results as given in US20050118638A1 (RSR, published 2005).
Changes are numbered by the printed parent chain. Blank lines part the entries; values can stand above or below the binder they belong to.

Key:
[1] = target: T1, TSH receptor (detergent solubilised TSH receptor preparation) (UniProt P16473 21-764, limits assumed); assay: solubilised TSHR, PEG method; IgG 100 µg/ml; competitor 125I-16E5 Fab
T1 construct: In some assays captured or labelled through MAb 4E31 F(ab)2; also called thyrotrophin receptor
T1 sequence (P16473 21-764 limits assumed): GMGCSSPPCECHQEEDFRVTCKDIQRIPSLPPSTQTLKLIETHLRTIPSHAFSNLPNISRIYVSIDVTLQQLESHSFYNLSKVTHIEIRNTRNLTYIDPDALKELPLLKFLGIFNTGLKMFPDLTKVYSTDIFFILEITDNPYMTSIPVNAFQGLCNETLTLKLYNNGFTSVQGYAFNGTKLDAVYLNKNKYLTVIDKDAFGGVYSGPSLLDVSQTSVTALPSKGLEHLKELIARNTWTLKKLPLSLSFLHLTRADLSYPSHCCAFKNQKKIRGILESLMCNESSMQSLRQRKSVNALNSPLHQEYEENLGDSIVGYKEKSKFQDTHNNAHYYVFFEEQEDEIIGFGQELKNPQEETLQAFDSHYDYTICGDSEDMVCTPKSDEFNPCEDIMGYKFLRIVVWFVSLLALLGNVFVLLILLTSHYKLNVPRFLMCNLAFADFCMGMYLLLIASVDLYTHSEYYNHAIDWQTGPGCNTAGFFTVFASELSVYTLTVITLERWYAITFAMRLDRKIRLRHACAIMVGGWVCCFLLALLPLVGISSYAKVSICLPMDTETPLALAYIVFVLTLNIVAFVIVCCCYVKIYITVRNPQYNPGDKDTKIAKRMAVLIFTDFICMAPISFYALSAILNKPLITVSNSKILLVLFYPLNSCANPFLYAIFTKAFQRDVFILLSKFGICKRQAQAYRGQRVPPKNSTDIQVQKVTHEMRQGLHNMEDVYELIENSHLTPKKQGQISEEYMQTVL

[2] = target: TSH receptor of isolated porcine thyroid cells (porcine, UniProt Q8SPP9 22-764); assay: cell-based or functional assay
Sequence of TSH receptor of isolated porcine thyroid cells (Q8SPP9 22-764): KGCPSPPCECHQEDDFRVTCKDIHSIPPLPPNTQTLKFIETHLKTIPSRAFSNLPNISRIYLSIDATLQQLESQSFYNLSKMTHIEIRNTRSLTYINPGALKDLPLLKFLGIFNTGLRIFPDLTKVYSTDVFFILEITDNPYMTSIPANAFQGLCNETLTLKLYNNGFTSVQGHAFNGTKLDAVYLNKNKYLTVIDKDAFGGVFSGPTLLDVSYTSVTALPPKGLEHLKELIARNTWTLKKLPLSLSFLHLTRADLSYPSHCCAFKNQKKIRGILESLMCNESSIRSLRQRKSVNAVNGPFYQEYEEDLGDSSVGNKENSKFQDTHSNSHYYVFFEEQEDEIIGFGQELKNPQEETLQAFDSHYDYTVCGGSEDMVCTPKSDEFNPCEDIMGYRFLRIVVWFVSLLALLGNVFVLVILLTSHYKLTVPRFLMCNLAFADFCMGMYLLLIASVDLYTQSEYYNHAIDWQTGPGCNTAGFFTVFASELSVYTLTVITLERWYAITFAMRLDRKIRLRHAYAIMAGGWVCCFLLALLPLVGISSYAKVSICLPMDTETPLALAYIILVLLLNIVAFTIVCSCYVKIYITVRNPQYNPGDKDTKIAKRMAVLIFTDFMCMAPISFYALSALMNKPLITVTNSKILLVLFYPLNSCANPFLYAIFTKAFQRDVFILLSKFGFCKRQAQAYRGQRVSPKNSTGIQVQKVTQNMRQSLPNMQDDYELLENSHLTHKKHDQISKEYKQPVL

[3] = target: human TSHR expressed on Chinese hamster ovary (CHO) cells (human, UniProt P16473 21-764); assay: cell-based or functional assay
Sequence of human TSHR expressed on Chinese hamster ovary (CHO) cells (P16473 21-764): as the sequence (P16473 21-764 limits assumed) above

[4] = target: T1, TSH receptor (detergent solubilised TSH …); assay: 125I-TSH, TSHR coated tubes; 20 µg/ml
Method: (§1) In particular the MAb 4E31 reactive with the TSHR C terminus (10 μg/mL F(ab)₂ preparation in 0.1 M Na₂CO₃ pH 9.2) was added to plastic tubes (Nune Maxisorp, 200 μL per tube) and coating allowed to proceed overnight 4° C. After washing and post-coating (10 mg/mL bovine serum albumin) the tubes were washed again with assay buffer (10 mM Tris-HCl pH 7.8, 50 mM NaCl, 1 mg/mL bovine serum albumin, 0.1% Triton X-100). 200 μL of a detergent solubilised TSHR preparation was then added and incubated overnight at 4° C. followed by aspiration and washing steps. Thereafter, 20 μL of “start” buffer (10 mM Tris-HCl pH 7.8, 50 mM NaCl, bovine serum albumin 1 mg/mL, 6 mM NaN₃, 1% Triton X-100) was added to the TSHR coated tubes followed by 100 μL of purified MAb IgG or patient sera and incubated at room temperature for 2 hours with gentle shaking. […] The tubes were then washed twice with 1 mL of assay buffer, aspirated and counted in a gamma counter.

[5] = target: T1, TSH receptor (detergent solubilised TSH …); assay: 125I-TSH, TSHR coated tubes; 2 µg/ml
Method: as §1

[6] = target: T1, TSH receptor (detergent solubilised TSH …); assay: 125I-TSH, TSHR coated tubes; tested at 10 µg/ml
Method: as §1

% inhibition of 125I-16E5 Fab binding [1]: 24.2%
Stimulation (%) of cyclic AMP, isolated porcine thyroid cells; 20 µg/ml [2]: 31%
Stimulation (%) of cyclic AMP, isolated porcine thyroid cells; 200 µg/ml [2]: 259%
B1: 4D7 IgG (antibody, V domains shown, not shown: a dimerising Fc or GST)
VH: DVQLKHSGPELVKPGASMKISCKASGYSFTGYTMNWVKQSHGKNLEWIGLINPYTGGTNYNQKFKGKAKLTVDKSSSTAFMELLSLTSEDSAVYYCARDGNLDYWGQGTTLTVSS
VL: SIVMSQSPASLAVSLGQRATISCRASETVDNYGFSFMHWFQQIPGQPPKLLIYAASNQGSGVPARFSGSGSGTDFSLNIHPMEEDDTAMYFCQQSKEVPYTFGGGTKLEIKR
notes: mouse monoclonal IgG; also called Mab 4D7

% inhibition of 125I-16E5 Fab binding [1]: 17%
B2: 3C7 IgG (antibody, V domains shown, not shown: a dimerising Fc or GST)
VH: B1 VH with E46D, T55N, N59S, N61D, K69T, F80Y, N101L, L102M, T110S, L111V
VL: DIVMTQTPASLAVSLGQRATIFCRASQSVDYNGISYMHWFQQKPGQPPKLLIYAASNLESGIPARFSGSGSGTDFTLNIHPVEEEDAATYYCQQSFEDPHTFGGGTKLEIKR
notes: mouse monoclonal IgG

Stimulation (%) of cyclic AMP, CHO cells expressing human TSHR; 20 µg/ml, diluted 1:10 [3]: 850%
% inhibition of TSH binding [4]: 83.3%
% inhibition of 125I-16E5 Fab binding [1]: 70.4%
% inhibition of TSH binding [5]: 73.6%
Stimulation (%) of cyclic AMP, isolated porcine thyroid cells; 2 µg/ml [2]: 269%
Stimulation (%) of cyclic AMP, isolated porcine thyroid cells; 20 µg/ml [2]: 332%
Stimulation (%) of cyclic AMP, isolated porcine thyroid cells; 200 µg/ml [2]: 466%
B3: 16E5 IgG (antibody, V domains shown, not shown: a dimerising Fc or GST)
VH: DVQLVQSGPELVKPGASVKMSCKASGYSFTGYNMHWVKQSHGKSLEWIGYIDPYNGATSYNQKFEDKATLTVDKSSSTAYMQLNSLTSEDSAVYYCARRWDWDPYAMDYWGQGTSVTVSS
VL: DILLTQSPAILSVSPGERVSFSCRASQSIGTSIHWYQQRTNGSPRLLIKYASESISGIFSRFSGSGSGTDFTLTINSVESEDIADYYCQQSNRWPLTFGAGTKLELKR
notes: mouse monoclonal IgG; also called MAb 16E5

% inhibition of TSH binding [6]: 53%
Stimulation (%) of cyclic AMP, isolated porcine thyroid cells; 200 µg/ml [2]: 425%
B4: 16E5 Fab (Fab, V domains shown)
VH: B3 VH
VL: B3 VL
notes: papain Fab of the mouse MAb

Stimulation (%) of cyclic AMP, CHO cells expressing human TSHR; 20 µg/ml, diluted 1:10 [3]: 908%
% inhibition of TSH binding [4]: 76.4%
% inhibition of 125I-16E5 Fab binding [1]: 67.6%
% inhibition of TSH binding [5]: 61%
Stimulation (%) of cyclic AMP, isolated porcine thyroid cells; 2 µg/ml [2]: 323%
Stimulation (%) of cyclic AMP, isolated porcine thyroid cells; 20 µg/ml [2]: 351%
Stimulation (%) of cyclic AMP, isolated porcine thyroid cells; 200 µg/ml [2]: 557%
B5: 14D3 IgG (antibody, V domains shown, not shown: a dimerising Fc or GST)
VH: B3 VH with L4M, V5Q, S7P, V18L, N55S, D66G
VL: B3 VL with D1N, L4M, S22A, F59P, T74S, S91T
notes: mouse monoclonal IgG; also called MAb 14D3

% inhibition of TSH binding [6]: 64%
Stimulation (%) of cyclic AMP, isolated porcine thyroid cells; 200 µg/ml [2]: 648%
B6: 14D3 Fab (Fab, V domains shown)
VH: B3 VH with L4M, V5Q, S7P, V18L, N55S, D66G
VL: B3 VL with D1N, L4M, S22A, F59P, T74S, S91T
notes: Fab of the mouse MAb

% inhibition of TSH binding [4]: 81.3%
% inhibition of 125I-16E5 Fab binding [1]: 69.2%
% inhibition of TSH binding [5]: 73.7%
Stimulation (%) of cyclic AMP, isolated porcine thyroid cells; 2 µg/ml [2]: 134%
Stimulation (%) of cyclic AMP, isolated porcine thyroid cells; 20 µg/ml [2]: 207%
Stimulation (%) of cyclic AMP, isolated porcine thyroid cells; 200 µg/ml [2]: 377%
B7: 17D2 IgG (antibody, V domains shown, not shown: a dimerising Fc or GST)
VH: B3 VH with L4I, V5Q, G31A, S40T, N55S, N61H, E65K, D66G, Q82R
VL: B3 VL with D1S, I2V, L3E, L4M, T5S, V19I, E53A, F59P, T74S, R93S
notes: mouse monoclonal IgG

% inhibition of TSH binding [6]: 45%
Stimulation (%) of cyclic AMP, isolated porcine thyroid cells; 200 µg/ml [2]: 274%
B8: 17D2 Fab (Fab, V domains shown)
VH: B3 VH with L4I, V5Q, G31A, S40T, N55S, N61H, E65K, D66G, Q82R
VL: B3 VL with D1S, I2V, L3E, L4M, T5S, V19I, E53A, F59P, T74S, R93S
notes: Fab of the mouse MAb

Stimulation (%) of cyclic AMP, isolated porcine thyroid cells; 20 µg/ml [2]: 37%
Stimulation (%) of cyclic AMP, isolated porcine thyroid cells; 200 µg/ml [2]: 34%
B9: 3B3 IgG (antibody, V domains shown)
VH: DVQLQQPGAELVKPGASVKLSCTTSGVNIKDTYMHWMKQRPEQGLEWIGRIDPANGNTKYDPKFRGKATITADTSSNTVYVQLRSLTSEDTAVYYCAYDGYWGQGTLVTVSA
VL: NIVMTQTPASLAVSLGQRATISCRASESVDSYGNNFMHWYQQKPGQSPRLLIYRASNLESGIPARFSGSGSRTDFTLTTNPVEADDVATYYCQQSHKDPLTFGAGTKLELK

Stimulation (%) of cyclic AMP, isolated porcine thyroid cells; 200 µg/ml [2]: 42%
B10: 3B3 Fab (Fab, V domains shown)
VH: B9 VH
VL: NIVMTQTPASLAVSLGQRATISCRASESVDSYGNNFMHWYQQKPGQSPRLLIYRASNLESGIPARFSGSGSRTDFTLTTNPVEADDVATYYCQQSHKDPLTFGAGTKLELKR

Stimulation (%) of cyclic AMP, CHO cells expressing human TSHR; 20 µg/ml, diluted 1:10 [3]: 111%
% inhibition of TSH binding [5]: 69.9%
Stimulation (%) of cyclic AMP, isolated porcine thyroid cells; 2 µg/ml [2]: 116%
Stimulation (%) of cyclic AMP, isolated porcine thyroid cells; 20 µg/ml [2]: 100%
B11: 2B4 IgG (antibody, V domains shown, not shown: a dimerising Fc or GST)
VH: DVQLQQSGTVLARPGASVRMSCKASGYSFTRYWIHWLKQRPGQGLEWIGAIFPGNRDTSYNQRFKGKAEVTAVTSASTAYLDLSSLTNEDSAVYYCTRWPYYGSIYVNFDYWGQGTTLTVSS
VL: DIVMTQSPLSLPVSLGDQASISCRTSQNLVHRNGNTYLHWYLQKPGQSPKLLIYKISNRFSGVPDRFSGSGSGTDFTLKISRVEAEDLGVYFCSQGTHVPPTFGGGTKLEIKR
notes: mouse monoclonal IgG; also called 2B4 MAb
